B1: SPSGQRDVSL (peptide)
peptide: SPSGQRDVSL
B2: LPSLSHCSQL (peptide)
peptide: LPSLSHCSQL
B3: QPSLVQAIF (peptide)
peptide: QPSLVQAIF
B4: RPRYETGVCA (peptide)
peptide: RPRYETGVCA
B5: RAAGRRLQL (peptide)
peptide: RAAGRRLQL
B6: RPRSLQCVSL (peptide)
peptide: RPRSLQCVSL
B7: QPLDICHSF (peptide)
peptide: QPLDICHSF
B8: KPHLDRRGAVI (peptide)
peptide: KPHLDRRGAVI
B9: QPDHAGIFRVF (peptide)
peptide: QPDHAGIFRVF
B10: LPRLPVGSLV (peptide)
peptide: LPRLPVGSLV
B11: APEGKRLGF (peptide)
peptide: APEGKRLGF
B12: RPSKEMQVTI (peptide)
peptide: RPSKEMQVTI
B13: MPVSAFTVI (peptide)
peptide: MPVSAFTVI
B14: SPTRGSEF (peptide)
peptide: SPTRGSEF
B15: QPTWNTQTRL (peptide)
peptide: QPTWNTQTRL
B16: QPVHSLCSA (peptide)
peptide: QPVHSLCSA
B17: TPFPDIHWF (peptide)
peptide: TPFPDIHWF
B18: MPYVVLTAL (peptide)
peptide: MPYVVLTAL
B19: YPSSPASAV (peptide)
peptide: YPSSPASAV
B20: FPCSALLACF (peptide)
peptide: FPCSALLACF
B21: RPVTGSVC (peptide)
peptide: RPVTGSVC
B22: KPRTPFTTAQLL (peptide)
peptide: KPRTPFTTAQLL
B23: IPHQRSSL (peptide)
peptide: IPHQRSSL
B24: LPLNSSTSL (peptide)
peptide: LPLNSSTSL
B25: RPFSVSSISQL (peptide)
peptide: RPFSVSSISQL
B26: NVNPARKGL (peptide)
peptide: NVNPARKGL
B27: IPVTSSVTL (peptide)
peptide: IPVTSSVTL

Target: HLA-B*07 (human)
Assay: UV peptide exchange ELISA; ++++ = yield >75%

Peptide exchange yield, > 75%:
B1
B2
B3
B4
B5
B6
B7
B8
B9
B10
B11
B12
B13
B14
B15
B16
B17
B18
B19
B20
B21
B22
B23
B24
B25
B26
B27

Source: patent US20200040057A1 (IMMATICS BIOTECHNOLOGIES, published 2020)
